Test results taken from the Immune Epitope Database (IEDB).

Columns and labels:
[1] = biological target: HLA-B*40:02; experiment: IEDB peptide-MHC binding, purified MHC/competitive/radioactivity; filed as Kd, often an IC50 or EC50 that approximates it; ≥ and ≤ were set here for values at or beyond the usual limits of such assays
[2] = biological target: HLA-B*18:01; experiment: as above
[3] = biological target: HLA-B*44:02; experiment: as above
[4] = biological target: HLA-B*40:01; experiment: as above
[5] = biological target: HLA-B*45:01; experiment: as above
[6] = biological target: HLA-B*44:03; experiment: as above
[7] = biological target: HLA-A*01:01; experiment: IEDB peptide-MHC binding, purified MHC/competitive/fluorescence; filed as Kd, often an IC50 or EC50 that approximates it; ≥ and ≤ were set here for values at or beyond the usual limits of such assays
[8] = biological target: HLA-A*03:01; experiment: as above; conditions: source organism: Yersinia pestis Nepal516
[9] = biological target: HLA-B*35:01; experiment: as above; conditions: source organism: Yersinia pestis Nepal516
[10] = biological target: HLA-B*15:01; experiment: as above; conditions: source organism: Yersinia pestis Nepal516
[11] = source organism: SARS coronavirus Tor2
[12] = source organism: Mammarenavirus juninense

## AEAAVKPLLA
[1]; [11]
  Kd: ≥ 20100 nM
[2]; [11]
  Kd: ≥ 55500 nM
[3]; [11]
  Kd: 105 nM
[4]; [11]
  Kd: 164 nM
[5]; [11]
  Kd: 10.6 nM
[6]; [11]
  Kd: 35.6 nM

## AEWVLAYML
[1]; [11]
  Kd: 4.02 nM
[2]; [11]
  Kd: 418 nM
[3]; [11]
  Kd: 13.9 nM
[4]; [11]
  Kd: 4.75 nM
[5]; [11]
  Kd: 36.5 nM
[6]; [11]
  Kd: 5.04 nM

## AEYKLQQGTF
[1]; [11]
  Kd: 20 nM
[2]; [11]
  Kd: 7040 nM
[3]; [11]
  Kd: 28.8 nM
[4]; [11]
  Kd: 4580 nM
[5]; [11]
  Kd: 62.3 nM
[6]; [11]
  Kd: 89.6 nM

## CLLSHTLAY
[7]; source organism: Yersinia pestis Nepal516
  Kd: 1060 nM
[8]
  Kd: 64.3 nM
[9]
  Kd: 24.6 nM
[10]
  Kd: 225 nM

## EELSMMYESL
[1]; [12]
  Kd: 106 nM
[2]; [12]
  Kd: 1340 nM
[3]; [12]
  Kd: 1480 nM
[4]; [12]
  Kd: 899 nM
[5]; [12]
  Kd: 1900 nM
[6]; [12]
  Kd: 1850 nM

## HSNASTLLY
[7]; source organism: Staphylococcus aureus subsp. aureus N315
  Kd: 2.5 nM
